The values that follow come from patent US20040033228A1.

The test concerns the target TNF (UniProt P01375). Description: cell-based or functional assay.
Sequence of UniProt P01375 (P01375 77-233 limits assumed): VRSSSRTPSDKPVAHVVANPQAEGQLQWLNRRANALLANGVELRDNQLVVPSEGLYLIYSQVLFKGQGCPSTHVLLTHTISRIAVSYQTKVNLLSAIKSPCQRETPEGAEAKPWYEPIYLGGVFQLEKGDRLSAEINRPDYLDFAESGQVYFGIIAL

Turning to D2E7 antibody, the In vitro TNF neutralization test; with 0.1% polysorbate 80; fast thaw -80° C. in water bath was 95.8, the In vitro TNF neutralization test; with 0.1% polysorbate 80; no freeze/thaw turned out to be 112, the In vitro TNF neutralization test; with 0.1% polysorbate 80; slow thaw -30° C. in refrigerator is 96.2 and the In vitro TNF neutralization test; with 0.1% polysorbate 80; slow thaw -80° in refrigerator is 96.7. This substance yielded an In vitro TNF neutralization test; without 0.1% polysorbate 80; fast thaw -30° C. in water bath of 118, an In vitro TNF neutralization test; without 0.1% polysorbate 80; fast thaw -80° C. in water bath of 120, an In vitro TNF neutralization test; without 0.1% polysorbate 80; no freeze/thaw of 118 and an In vitro TNF neutralization test; without 0.1% polysorbate 80; slow thaw -30° C. in refrigerator of 124. The In vitro TNF neutralization test; without 0.1% polysorbate 80; slow thaw -80° in refrigerator turned out to be 103.
